This passage reports amyloid nucleation score results from the supplement of paper PMC12042874.

± gives the uncertainty stated by the source.

This data set is described as follows: amyloid nucleation score (Sup35N fusion, yeast selection) (log enrichment); library NNK1; higher = more nucleation; inactive = no reads after selection. The procedure, abridged:
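Sup35N was fused to peptides of 20 random codons and expressed in psi-negative yeast, which were induced with 100 μM copper sulfate for 24 hours and then grown on medium lacking adenine and uracil for 7 days at 30°C. Plasmid inserts from input and output were sequenced on Illumina. The nucleation score is the DiMSum log enrichment of output over input reads, centred on the mode score of non-aggregating sequences. Sequences with under 100 input reads were left out, and random libraries had three technical output replicates.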

MLPLCMSAIRRVKLRSPSEY: the amyloid nucleation score came out at 0.151 ± 0.52.
On to PYMVSGSWPKFRT, for which the amyloid nucleation score was determined as 0.041 ± 0.58.
The same measure for HISMRDFFSHLGRRVVGIMY: -1.1 ± 0.45.
In turn, MWGMF displayed an amyloid nucleation score of -0.132 ± 0.35.
For RWCMCVENRGMLVWGWNGFV, the amyloid nucleation score was -0.245 ± 0.53.
The same measure for TDSSREGVNLHKLLFTFAMR: 0.137 ± 1.1; for GLAGTLDPLTASDLLSRIGV: 0.182 ± 0.62.
The same measure for FISAACEEPVTFMGNYGGYG: 0.02 ± 0.53; for IGSLGMCLQCYGAGV: 0.147 ± 1.2.
FPESNKLMV gave an amyloid nucleation score of 1.06 ± 0.65.
HALRSTLYMGSSVFLNAMDS had an amyloid nucleation score of 0.053 ± 1.1.
On to RYGPAVLKSSGAAAVGHS, for which the amyloid nucleation score is -0.59 ± 0.59.
The same measure for LSHTTVRIDMGAAWRSLYSM: 2.36 ± 0.13.
With MFIASGV, the amyloid nucleation score is -1.65 ± 0.84.
Turning to EALCHMWQYSGCP, the amyloid nucleation score came out at 0.324 ± 0.66.
MGYRDNLSF showed an amyloid nucleation score of 0.915 ± 0.53.
Consider FINNNVEDYFISL, for which the amyloid nucleation score amounted to 0.712 ± 0.41.
As to PWSALTASGTKISSSKSRLG, the amyloid nucleation score is -0.331 ± 0.93.
On to ESPHYFTLTCV, for which the amyloid nucleation score is -0.036 ± 0.74.
GSSGAWVCSGCL displayed an amyloid nucleation score of -0.626 ± 1.2.
The substance IFNSNLLLTATRGDSVIWPY had an amyloid nucleation score of 3.26 ± 0.14.
Substance YPLSLRYQCI had an amyloid nucleation score of 0.2 ± 0.25.
As for MKLRVDLFSYGRCLCEQ, the amyloid nucleation score is -0.021 ± 0.25.
In the case of YGFKLGMFTGSIAMYAGHLI, the amyloid nucleation score is -0.198 ± 0.31.
Consider YHVYSVRSNVWALLKIRLV, for which the amyloid nucleation score amounted to 1.14 ± 0.58.
With KYWWY, the amyloid nucleation score is 0.265 ± 0.2.
NRIFCLYSFCCFHENWVGLY gave an amyloid nucleation score of 4.96 ± 0.095.
In turn, LAISL displayed an amyloid nucleation score of -0.444 ± 0.36.
YFCFFSRMFTVEF: the amyloid nucleation score was found to be 2.12 ± 0.64.
In turn, NWRQEYVFAY came in with an amyloid nucleation score of -1.37 ± 2.4.
Substance GRFFRRLRECNLPHSNIHAY gave an amyloid nucleation score of 0.343 ± 0.42.
Regarding LFHANQKHAGWSRASTLEAC, the amyloid nucleation score is -0.954 ± 0.54.
For the substance QGAGILTYPRALRHWVVRRM, the amyloid nucleation score amounted to 0.12 ± 0.51.
In turn, KMIDICPFIHWSQSSTPSRA showed an amyloid nucleation score of 0.018 ± 0.67.
CMMSNRTCQAQLVMMWEMW: the amyloid nucleation score result is “inactive”.
Substance VLRQMS yielded an amyloid nucleation score of 1.67 ± 0.19.
On to RLRDTNVYTTQFFVFYLMNW, for which the amyloid nucleation score was 6.677 ± 0.051.
The same measure for LCLLPG: 0.888 ± 0.5; for RLSLTINFGNKFRCITGQFD: 4.01 ± 0.091.
The same measure for CGNLVCCNIMTDKNGY: 7.886 ± 0.055; for CSNRWYVNMFVHWIFVHLGS: 1.47 ± 0.53.
As for VNMNELRNNRLSSVVFLVVG, the amyloid nucleation score stood at 2.09 ± 0.21.
In turn, CWPSRQF registered an amyloid nucleation score of 0.373 ± 0.94.
With SMSPWDFNICCMNVCTTLLT, the amyloid nucleation score stood at 2.77 ± 0.25.
Substance SVTERCKLQSHHDMVGGM gave an amyloid nucleation score of 3.37 ± 0.13.
Take GFYRGVTTIFCSVFI: the amyloid nucleation score is 7.777 ± 0.07.
The same measure for NYFTRFVTGDGLSFLMRVAT: 0.487 ± 0.82; for VDGSSCFGCAGCTTRRFTSG: -0.253 ± 0.43.
In the case of GRRRSDQASTVRRSLCEGMA, the amyloid nucleation score is 0.451 ± 0.67.
On to RTNVWVAFVDSRSHGQFCQK, for which the amyloid nucleation score turned out to be 3.68 ± 0.18.
Substance VHFRYNIVTVSPQVIKFFST gave an amyloid nucleation score of 5.36 ± 0.071.
Turning to MERTWFG, the amyloid nucleation score turned out to be 0.276 ± 0.3.
GSGSDGQVGWFVANRDERRE yielded an amyloid nucleation score of 0.495 ± 0.38.
The same measure for TNGRR: -0.691 ± 1.2; for NSVAGSYGVWQWGDSRSLPP: 0.262 ± 0.43.
Substance VGLNMLKNFNPDLSAKDITH displayed an amyloid nucleation score of -0.176 ± 1.1.
RVQCNNMKVCGITIFLMRS displayed an amyloid nucleation score of 6.516 ± 0.049.
As for YHGVTLVSLLRYKLW, the amyloid nucleation score was found to be 1.28 ± 0.27.
As to FSSGVILSGRRRSLK, the amyloid nucleation score is -0.437 ± 0.49.
For GYISRHNAGSSAPVNVVRLR, the amyloid nucleation score was -0.223 ± 0.65.
For LLIALFSW, the amyloid nucleation score worked out at 1.34 ± 0.25.
For the substance HSPCMPLTCSQTWHSLDLPF, the amyloid nucleation score was -0.304 ± 0.55.
Substance SWVNRPYWSPGDTTVWYGC displayed an amyloid nucleation score of 1.06 ± 0.52.
Regarding ANSYARCYNLVWKLV, the amyloid nucleation score was -0.291 ± 0.66.
The same measure for LQCQN: 0.702 ± 0.4; for ASTMFQIYVHPNYTISLMLK: 0.44 ± 0.28.
Turning to KLIVVSLIRDMQSNV, the amyloid nucleation score is -0.059 ± 0.27.
Turning to LWRRWNCFT, the amyloid nucleation score entry was “inactive”.
The substance ILPLLLMWFTYCDDV had an amyloid nucleation score of 2.23 ± 0.6.
Regarding SDTVWFPYKLITSLHQSAKW, the amyloid nucleation score came out at 1.41 ± 0.14.
The substance FIIKYK yielded an amyloid nucleation score of 2.26 ± 0.19.
NYALGFRAAWIIRLLRWSVE yielded an amyloid nucleation score of 0.254 ± 0.57.
ALFCDDEYRRDYW gave an amyloid nucleation score of 0.192 ± 0.31.
The same measure for NPRLCPKDMRGRPQEKRVPQ: -0.345 ± 1.7.
Regarding SIGWYTQGRYVGMCHRN, the amyloid nucleation score came out at 0.251 ± 0.53.
Regarding TTFFSGIYKKASLFYRHFVL, the amyloid nucleation score was -0.812 ± 0.28.
Substance NCTARMKVGFAGFSFTLWIA showed an amyloid nucleation score of 0.533 ± 0.56.
The substance MGGLRVYRPCVER came in with an amyloid nucleation score of -0.437 ± 0.71.
SGTSLPNITLLDTFCTRCFV had an amyloid nucleation score of -0.095 ± 0.22.
With EAFYFRLRKLFDRNPGGEGT, the amyloid nucleation score was 0.621 ± 0.32.
Turning to VPVLLNARIRI, the amyloid nucleation score was -1.1 ± 0.81.
LCVFVKAGVCWGRTVIRKSG: the amyloid nucleation score result is “inactive”.
Regarding LQFNMVYVCYGWSSVYARSG, the amyloid nucleation score stood at 0.409 ± 0.28.
QHVFWIYPLPTLSSYGTARS registered an amyloid nucleation score of -0.227 ± 1.9.
The same measure for PSGCFVWEML: “inactive”; for FNTCMSLFSNCFPNCWMHFK: 0.428 ± 0.61; for YSGHWPWMQ: -1.17 ± 0.74.
In the case of MMGGSRWTCCYTFDFWSCWD, the amyloid nucleation score came out at 4.27 ± 0.1.
For DPNFITMACQIADECAYCCH, the amyloid nucleation score result was “inactive”.
For the substance TGRRIVGYDCLNRSCMYICV, the amyloid nucleation score was -0.321 ± 0.25.
VWYTRGRRHRGTTYMSNRLW had an amyloid nucleation score of -0.28 ± 0.31.
In the case of IYLSNAYSTTYSLKFSFM, the amyloid nucleation score stood at 6.14 ± 0.071.
YSDWHI came in with an amyloid nucleation score of -0.511 ± 0.91.
The same measure for THCFFYHLGKFYMSKITLAS: -1.48 ± 2.7; for FAPMILRPVLSQMAWWKDIA: -0.108 ± 0.52; for FMDTAMTSFGSLSW: -0.317 ± 0.55.
The same measure for FVLWIY: 0.14 ± 0.47; for GGTWPYTAVRWVIWRLWGEG: 0.129 ± 0.64.
In turn, RPMYHGYHMH displayed an amyloid nucleation score of 0.483 ± 0.38.
As for SSPVRGASKSSRGSTNVHAN, the amyloid nucleation score is 0.29 ± 1.1.
As for DSRLGLMWMYEPIIRDGKWF, the amyloid nucleation score amounted to 0.802 ± 0.9.
Regarding VFCSQGMADTLR, the amyloid nucleation score was determined as 0.409 ± 0.84.
As for GHQILDSCLANCYGGCLIAC, the amyloid nucleation score came out at 0.652 ± 0.61.
Substance SRRSENYFSGANRIGHGGST yielded an amyloid nucleation score of 0.54 ± 0.4.
With LTHCAWVAFDA, the amyloid nucleation score was found to be 1.7 ± 0.52.
PCLLCVYCMFL: the amyloid nucleation score turned out to be 4.53 ± 0.055.
LRVNIPVTQSSTVIHY gave an amyloid nucleation score of 0.91 ± 0.39.
VKVVALRIWRSEDLVVRFWG returned an amyloid nucleation score of 0.562 ± 0.78.
Take QLVKSVY: the amyloid nucleation score was -0.166 ± 0.35.
Consider RSSSDKPSKTTTWRMLAGTG, for which the amyloid nucleation score is -0.113 ± 0.7.
GAPEVPIDYGLEASRNCSKG gave an amyloid nucleation score of -0.61 ± 1.4.
The same measure for VLMMVLGRWDTSSVMFIMMV: 0.343 ± 0.97; for FNYYITFHCTCELECRGYCT: 7.841 ± 0.05; for TSSTRILISTTELVRNYCYC: 1.37 ± 0.26.
LRTGQGHYDRVVGHRHNLCA came in with an amyloid nucleation score of -1.42 ± 0.9.
In turn, LAFTNRVVVWESWSAMAVRW yielded an amyloid nucleation score of -0.173 ± 0.66.
The same measure for RRRHWVSSAGGKRRHLVFCA: 1.22 ± 0.46; for WSKDNTIVEISYGTSGLVQL: 0.39 ± 0.26.
Consider GSVDQSMC, for which the amyloid nucleation score turned out to be 0.968 ± 0.45.
As for FFYLIISGMVMLSNPLSRVS, the amyloid nucleation score entry was “inactive”.
The same measure for FIWGLKLVDFSLPVSAL: -0.411 ± 0.51; for SFAVHVGVANSSGSCLMLGG: 0.277 ± 0.3; for SNVDSWFGRVTSA: -0.698 ± 0.33.
Substance LCEVRDCWVL registered an amyloid nucleation score of 0.783 ± 0.41.
The same measure for AGSNSFIFFLVRFFVRALGR: -0.67 ± 0.34.
The substance QSETDQIFEVFFSDWHSCTK registered an amyloid nucleation score of 0.777 ± 0.97.
For the substance VIWSNWRRRVPEGPDERYKR, the amyloid nucleation score amounted to 0.649 ± 0.46.
YFRRCFDRCVMSRLRPI registered an amyloid nucleation score of -0.793 ± 0.61.
The same measure for DHPCTTWVLPSYGPEDPLPC: 0.175 ± 0.35; for FISNVWPYGESRFEESNPCL: 0.094 ± 0.52; for CLLSRLYMVSLFWS: 0.033 ± 0.43.
On to VSVFLHAVITDPS, for which the amyloid nucleation score was determined as 1.9 ± 0.46.
IVYIWFLSLNFSMMVSFRFP showed an amyloid nucleation score of 0.805 ± 0.29.
Consider LGLGQSGRV, for which the amyloid nucleation score is -0.15 ± 0.71.
The same measure for LVLVNSTWCTYPCGWMCEME: 0.488 ± 1.2; for ITFKLNMCPILWIPCVACSN: 6.57 ± 0.047; for MSKYALNLAMVDRGLSKDQN: -0.898 ± 1.6.
For VIQEPKFMYLQLFVGLPCVS, the amyloid nucleation score was determined as 4.51 ± 0.09.
The same measure for RSDVVVFHQLS: -0.257 ± 1.7.
With PITILVVFNLQKY, the amyloid nucleation score is 6.242 ± 0.046.
The same measure for HNGHPRTAWVVVQY: 0.298 ± 0.28.
